# Results taken from patent US20260116991A1 (HAINAN SIMCERE ZAIMING PHARMACEUTICAL, published 2026).
# Several values for one entry are separate records, joined by “and”; a condition that tells them apart may be missing. Identical values can stand only once.
# T1: polypeptide GC3pep of human GPC3 (Ala524-Lys563) (human)
# T1 construct: Residues Ala524-Lys563 of human GPC3 (NCBI NM_004484.3); coated on the ELISA plate; also called membrane proximal polypeptide GC3pep
# T1 peptide: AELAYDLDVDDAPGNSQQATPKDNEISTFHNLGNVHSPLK
# Legend:
# [1] = biological target: T1, polypeptide GC3pep of human GPC3 …; assay: ELISA, coated peptide
# GPC3 on HepG2 cells = biological target: T2, GPC3 on HepG2 cells (human, UniProt P51654 25-554); assay: FACS on HepG2 cells
# T2 construct: whole, on cells; also called glypican-3
# [2] = biological target: T3, murine GPC3-His protein (Sino Biological, Cat. No. 50989-M08B) (murine, UniProt Q8CFZ4 25-558); assay: ELISA, coated antigen
# T3 construct: Bought protein; also called murine GPC3 protein; mouse GPC3-his protein; not shown: His tag
# T3 sequence (Q8CFZ4 25-558 limits assumed): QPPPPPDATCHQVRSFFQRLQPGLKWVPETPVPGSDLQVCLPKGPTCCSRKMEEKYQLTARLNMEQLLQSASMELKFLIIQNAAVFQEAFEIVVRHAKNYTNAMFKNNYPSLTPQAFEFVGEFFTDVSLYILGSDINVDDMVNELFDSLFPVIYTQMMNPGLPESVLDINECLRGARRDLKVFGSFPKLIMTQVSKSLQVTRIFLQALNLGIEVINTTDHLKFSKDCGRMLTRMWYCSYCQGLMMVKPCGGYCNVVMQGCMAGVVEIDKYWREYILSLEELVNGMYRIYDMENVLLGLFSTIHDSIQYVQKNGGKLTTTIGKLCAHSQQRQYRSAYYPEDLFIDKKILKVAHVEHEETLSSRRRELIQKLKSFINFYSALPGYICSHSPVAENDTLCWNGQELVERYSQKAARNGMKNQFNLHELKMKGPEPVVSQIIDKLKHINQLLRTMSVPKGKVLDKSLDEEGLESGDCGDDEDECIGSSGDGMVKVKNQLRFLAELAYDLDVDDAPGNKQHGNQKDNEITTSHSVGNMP
Binder,binding result [1],binding result [2],also measured
"F1.92.17 human-murine chimeric antibody (antibody, human IgG1, kappa, V domains shown, Chimeric) VH: EVQLQQSGPELVKPGASVKMSCKASGYTFTDYNMHWVRQSHGKSLEWIGYINPNNGDTIYNQNFKGKATLTVNKSSSTAYMELRSLTSEDSAVYYCSRTITYYYSMDYWGPGTSVTVSS VL: QIVLTQSPALMSASPGEKVTMTCSASSSVSYMYWYQQKPRSSPKPWIYLTSNLASGVPARFSGSGSGTSYSLTISSMEAEDAATYYCQQWSSNPLTFGAGTKLELKR",no binding (tested: 100 nM),–,–
"hAb001H1L1b (antibody, human IgG1, V domains shown, Humanized F2.169.2, H1+L1b) VH: EVQLVESGGGLVQPGGSLRLSCAASGFSFNTNAMNWVRQAPGKGLEWVGRIRSKSNNYATYYADSVKDRFTISRDDSKNSLYLQMNSLKTEDTAVYYCVRDGYYVLFAYWGQGTLVTVSS VL: DIVMTQTPLSLPVTPGEPASISCRFSQSIVNSNANTYLEWFLQKPGQSPQLLIYKVSNRFSGVPDRFSGSGSGTDFTLKISRVEAEDVGVYYCFQGSHVPFTFGQGTKLEIK",–,–,EC50 (GPC3 on HepG2 cells): 0.918 nM; Max MFI (GPC3 on HepG2 cells): 4090
"hAb007LH1L1e (antibody, human IgG1, V domains shown, Humanized F3.81.19) VH: EVQLVQSGAEVKKPGSSVKVSCKASGYTFSDYEMHWVRQAPGQGLEWMGTIDPETGNTAYNQKFKGRVTITADKSTSTAYMELSSLRSEDTAVYYCTRPYSLTYWGQGTLVTVSS VL: DIVMTQTPLSLPVTPGEPASISCRSSQSFVHSNVDTYLQWYLQKPGQSPQLLIYKVSNRFSGVPDRFSGSGSGTDFTLKISRVEAEDVGVYYCFQGSHVPYTFGQGTKLEIK",–,no binding,–
"hAb007LH1L1c (antibody, human IgG1, V domains shown, Humanized F3.81.19) VH: EVQLVQSGAEVKKPGSSVKVSCKASGYTFSDYEMHWVRQAPGQGLEWMGTIDPETGNTAYNQKFKGRVTITADKSTSTAYMELSSLRSEDTAVYYCTRPYSLTYWGQGTLVTVSS VL: DIVMTQTPLSLPVTPGEPASISCRSSQSFVHSNADTYLQWYLQKPGQSPQLLIYKVSNRFSGVPDRFSGSGSGTDFTLKISRVEAEDVGVYYCFQGSHVPYTFGQGTKLEIK",–,no binding,–
"hAb007LH3L1a (antibody, human IgG1, V domains shown, Humanized F3.81.19) VH: EVQLVQSGAEVKKPGSSVKVSCKASGYTFTDYEMHWVRQAPGQGLEWMGTIDPETGNTAYNQKFKGRVTLTADKSTSTAYMELSSLRSEDTAVYYCTRPYSLTYWGQGTLVTVSS VL: DIVMTQTPLSLPVTPGEPASISCRSSQSFVHSDGDTYLQWYLQKPGQSPQLLIYKVSNRFSGVPDRFSGSGSGTDFTLKISRVEAEDVGVYYCFQGSHVPYTFGQGTKLEIK",–,no binding,–
"hAb007LH1L1d (antibody, human IgG1, V domains shown, Humanized F3.81.19) VH: EVQLVQSGAEVKKPGSSVKVSCKASGYTFSDYEMHWVRQAPGQGLEWMGTIDPETGNTAYNQKFKGRVTITADKSTSTAYMELSSLRSEDTAVYYCTRPYSLTYWGQGTLVTVSS VL: DIVMTQTPLSLPVTPGEPASISCRSSQSFVHSNSDTYLQWYLQKPGQSPQLLIYKVSNRFSGVPDRFSGSGSGTDFTLKISRVEAEDVGVYYCFQGSHVPYTFGQGTKLEIK",–,no binding,–
"hAb007LH3L1 (antibody, human IgG1, V domains shown, Humanized F3.81.19) VH: EVQLVQSGAEVKKPGSSVKVSCKASGYTFTDYEMHWVRQAPGQGLEWMGTIDPETGNTAYNQKFKGRVTLTADKSTSTAYMELSSLRSEDTAVYYCTRPYSLTYWGQGTLVTVSS VL: DIVMTQTPLSLPVTPGEPASISCRSSQSFVHSNGDTYLQWYLQKPGQSPQLLIYKVSNRFSGVPDRFSGSGSGTDFTLKISRVEAEDVGVYYCFQGSHVPYTFGQGTKLEIK",–,no binding,–
"F1.110.24 human-murine chimeric antibody (antibody, human IgG1, kappa, V domains shown, Chimeric) VH: EVKLVESGGGLVQPGGSLKLSCAASGFTFSDFYMYWVRQTPEKRLEWVAFISNGGGSTYYPDTVKGRFTISRDNVKNTLYLQMSRLKSEDTAMYYCARPDTSWFAYWGQGSLVTVSA VL: DIQMTQTTSSLSASLGDRVTISCRASQDIDNYLNWYQQKPDGTVKVLISYTSRLHSGVPSRFSGSGSGTDYSLTISNLEQEDIATYFCQQGNTLPWTFGGGTKLEIKR",no binding (tested: 100 nM),–,–
"GC33 IgG (antibody, V domains shown, Complete IgG form of the control antibody GC33; also called codrituzumab) VH: QVQLVQSGAEVKKPGASVKVSCKASGYTFTDYEMHWVRQAPGQGLEWMGALDPKTGDTAYSQKFKGRVTLTADKSTSTAYMELSSLTSEDTAVYYCTRFYSYTYWGQGTLVTVSS VL: DVVMTQSPLSLPVTPGEPASISCRSSQSLVHSNRNTYLHWYLQKPGQSPQLLIYKVSNRFSGVPDRFSGSGSGTDFTLKISRVEAEDVGVYYCSQNTHVPPTFGQGTKLEIKR",–,–,EC50 (GPC3 on HepG2 cells): 1.56 nM and 1.21 nM
"F1.21.8 human-murine chimeric antibody (antibody, human IgG1, kappa, V domains shown, Chimeric) VH: EVQLQQSGPELVKPGASVKISCKTSGFLFTGHYMHWVKSSHGNILDWIGYIYPYNAISFYNQKFKGKATLTVDKSSNTAYMELRSLTSEDSAVYYCARGDYGNYVTAYWGQGTLVTVSA VL: DVLMTQTPLSLPVSLGDQASISCRSSQSIVHSSGNTYLEWYLQKPGQSPKLLIYKVSNRFSGVPDRFSGSGSGTDFTLKISRVEAEDLGVYYCFQGSHLPWTFGGGTKLDIKR",no binding (tested: 100 nM),–,–
"F1.78.24 human-murine chimeric antibody (antibody, human IgG1, kappa, V domains shown, Chimeric) VH: QVQLQQSGAELVKPGASVKMSCKASGYTFTTYPIEWMKQNHGKSLEWIGNFHPYNDDTNYNVKFKGKATLTVEKSSSTVYLELSRLTSDDSALYYCARRREYYGSFDVWGTGTTVTVSS VL: not shown",no binding (tested: 100 nM),–,–
"F1.83.6 human-murine chimeric antibody (antibody, human IgG1, kappa, V domains shown, Chimeric) VH: QVQLQQSGPELVKPGASVKISCKASGYAFSSSWMNWVKQRPGKGLEWIGRIYPGDGDTNYNGRFKGKATLTVDKSSSTAYMQLSSLTSEDSAVYFCARGGVFTMALDHWGQGTTLTVSS VL: DIQMTQSPSSLSASLGGKVTITCKASQDINKYIAWYQHKPGKGPRLLIHYTSTLQPGIPSRFSGSGSGRDYSFSISNLEPEDIATYYCLQYDNLFTFGGGTKLEIKR",no binding (tested: 100 nM),–,–

# Further lines, with some results ahead:
binding result [1],binding result [2],Binder,also measured
–,no binding,"hAb007LH3L1b (antibody, human IgG1, V domains shown, Humanized F3.81.19) VH: EVQLVQSGAEVKKPGSSVKVSCKASGYTFTDYEMHWVRQAPGQGLEWMGTIDPETGNTAYNQKFKGRVTLTADKSTSTAYMELSSLRSEDTAVYYCTRPYSLTYWGQGTLVTVSS VL: DIVMTQTPLSLPVTPGEPASISCRSSQSFVHSNRDTYLQWYLQKPGQSPQLLIYKVSNRFSGVPDRFSGSGSGTDFTLKISRVEAEDVGVYYCFQGSHVPYTFGQGTKLEIK",–
–,no binding,"hAb007LH2L1a (antibody, human IgG1, V domains shown, Humanized F3.81.19) VH: EVQLVQSGAEVKKPGSSVKVSCKASGYTFTDYEMHWVRQAPGQGLEWMGTIDPETGNTAYNQKFKGRVTITADKSTSTAYMELSSLRSEDTAVYYCTRPYSLTYWGQGTLVTVSS VL: DIVMTQTPLSLPVTPGEPASISCRSSQSFVHSDGDTYLQWYLQKPGQSPQLLIYKVSNRFSGVPDRFSGSGSGTDFTLKISRVEAEDVGVYYCFQGSHVPYTFGQGTKLEIK",–
–,no binding,"hAb007LH2L1b (antibody, human IgG1, V domains shown, Humanized F3.81.19) VH: EVQLVQSGAEVKKPGSSVKVSCKASGYTFTDYEMHWVRQAPGQGLEWMGTIDPETGNTAYNQKFKGRVTITADKSTSTAYMELSSLRSEDTAVYYCTRPYSLTYWGQGTLVTVSS VL: DIVMTQTPLSLPVTPGEPASISCRSSQSFVHSNRDTYLQWYLQKPGQSPQLLIYKVSNRFSGVPDRFSGSGSGTDFTLKISRVEAEDVGVYYCFQGSHVPYTFGQGTKLEIK",–
no binding (tested: 100 nM),–,"F1.111.11 human-murine chimeric antibody (antibody, human IgG1, kappa, V domains shown, Chimeric) VH: EVQLQQSGPELVKPGASVKISCKASGYTFTDYYMNWVKQSHGKSLEWIGDIYPNNGDTTYNQRFKGKATLTVDKSSSTAYMELRSLASEDSAVYYCACPYNNPFGYWGQGTLVTVSA VL: DVVMTQTPLSLPVSLGDQASISCRSSQSLVHSNGNTYLHWYLQKPGQSPKLLIYKVSNRFSGVPDRFSGSGSGTDFTLKISRVEAEDLGVYFCSQSTHVPWTFGGGTKLEIKR",–
no binding (tested: 100 nM),–,"F1.73.9 human-murine chimeric antibody (antibody, human IgG1, kappa, V domains shown, Chimeric) VH: QVQLKQSGAELVRPGASVKLSCKASGYTFTDYYINWVKQRPGQGLEWIARIYPGSGNTYYNEKFKGKATLTAEKSSSTAYMQFSSLTSEDSAVYFCACSTYYTMDYWGQGTSVTVSS VL: QIVLTQSPAIMSASLGERVTMTCTASSGVSSSYLHWYQQKPGSSPKLWIYTTSNLASGVPARFSGSGSGTSYSLTISSMEAEDAATYYCHQYHRSPYTFGGGTKLEIKR",–
no binding (tested: 100 nM),–,"F1.42.8 human-murine chimeric antibody (antibody, human IgG1, kappa, V domains shown, Chimeric) VH: HVQLQQPGAELVKPGASVKLSCKASGYTFTSYWMHWVRQRPGQGLEWIEMIHPNSGSTNYNEKFKSKATLTVDKSSSTAYMQLSSLTSEDSAVYYCARGNYNSSLYAMDYWGQGTSVTVSS VL: DIQMTQTTSSLSASLGDRVTISCSASQGISNYLNWYQQKPDGTVKLLIYYASNLHSGVPSRFSGSGSGTAYSLTISNLEPEDIATYYCQQYSILPYTFGGGTKLEIKR",–
no binding (tested: 100 nM),–,"F1.2.14 human-murine chimeric antibody (antibody, human IgG1, kappa, V domains shown, Chimeric) VH: RVQLQQSGAELVKPGASVRMSCKASGYTFTAYSIEWMKQNLGKSLEWIGNFRPYNDDTKYNENFKGRATLTVEKSSATVYLELSRLTSDDSAVYYCARSGPTDYFDYWGQGTTLIVSS VL: DIQMTQSPASLSASVGETVTITCRASDNIYSYLAWYQQKQGQSPQLLVYNAKTLAEGVPSRFSGSGSVTQFSLKIISLQPEDFGTYYCQHHFGTPRTFGGGTKLEIKR",–
no binding (tested: 100 nM),–,"F1.57.21 human-murine chimeric antibody (antibody, human IgG1, kappa, V domains shown, Chimeric) VH: QVQLQQSGAELARPGASVKLSCKASGYTFTSYGISWVKQITGQGLEWIGEIYPRSESTYYNEKFKGKATLTADKSSSTAYMELRSLTSEDSAVYFCARDYGNIYSFAYWGQGTLVTVSA VL: DIQMTQSPASLSASVGETVTITCRTSENIYSYLAWYQQKQGKSPQLLVYNAKTLAEGVPSRFSGSGSGTQFSLKINSLQPEDFGSYYCQHHYGTPLTFGAGTKLELKR",–
